Where a chain is given by its changes, count along the chain named. Each block holds one binder with its values, some of them ahead of it.
Legend:
[1] = target: T1, Recombinant human G-CSFR (Glu25-Pro621, 381-GR/CF, R&D Systems) (human, UniProt Q99062 25-621); assay: not stated in the sentence (SPR values of Table 2 agree)
T1 construct: range 25-621; Bought protein, amine-coupled to a CM5 chip for SPR; also called rhG-CSFR; granulocyte-colony stimulating factor receptor
T1 sequence (looked up): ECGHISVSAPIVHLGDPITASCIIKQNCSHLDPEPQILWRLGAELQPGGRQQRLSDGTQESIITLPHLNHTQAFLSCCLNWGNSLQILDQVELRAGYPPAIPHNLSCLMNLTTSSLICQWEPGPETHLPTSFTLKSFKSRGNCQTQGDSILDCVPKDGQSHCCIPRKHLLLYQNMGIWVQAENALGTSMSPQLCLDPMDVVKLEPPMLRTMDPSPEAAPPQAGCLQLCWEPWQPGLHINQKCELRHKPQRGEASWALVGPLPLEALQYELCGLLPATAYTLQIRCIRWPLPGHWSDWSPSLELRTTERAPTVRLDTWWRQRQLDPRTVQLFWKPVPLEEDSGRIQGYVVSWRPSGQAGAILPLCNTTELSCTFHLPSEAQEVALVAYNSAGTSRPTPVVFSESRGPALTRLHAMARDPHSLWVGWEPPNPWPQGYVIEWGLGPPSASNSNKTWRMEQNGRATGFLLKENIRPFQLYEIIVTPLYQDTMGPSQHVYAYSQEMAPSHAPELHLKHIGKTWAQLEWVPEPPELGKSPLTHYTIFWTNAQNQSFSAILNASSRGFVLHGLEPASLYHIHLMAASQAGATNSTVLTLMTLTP

[2] = target: T1, Recombinant human G-CSFR (Glu25-Pro621, …); assay: SPR, Biacore X100, multi-cycle kinetics, rhG-CSFR amine-coupled to CM5 chip, design as analyte, 1:1 model; series of Fig. 6 (from 20 nM)
[3] = target: T1, Recombinant human G-CSFR (Glu25-Pro621, …); assay: SPR, Biacore X100, multi-cycle kinetics, rhG-CSFR amine-coupled to CM5 chip, design as analyte, 1:1 model; series of Fig. 13 (from 125 nM)
[4] = target: T1, Recombinant human G-CSFR (Glu25-Pro621, …); assay: SPR, Biacore X100, multi-cycle kinetics, rhG-CSFR amine-coupled to CM5 chip, design as analyte, 1:1 model; series of Fig. 15C (from 20 nM)
[5] = target: T1, Recombinant human G-CSFR (Glu25-Pro621, …); assay: SPR, Biacore X100, multi-cycle kinetics, rhG-CSFR amine-coupled to CM5 chip, design as analyte, 1:1 model; series of Fig. 13 (from 31 nM)
[6] = target: T2, G-CSFR on Kasumi-1 cells (UniProt Q99062 25-836, limits assumed); assay: cell-based or functional assay
T2 sequence (looked up): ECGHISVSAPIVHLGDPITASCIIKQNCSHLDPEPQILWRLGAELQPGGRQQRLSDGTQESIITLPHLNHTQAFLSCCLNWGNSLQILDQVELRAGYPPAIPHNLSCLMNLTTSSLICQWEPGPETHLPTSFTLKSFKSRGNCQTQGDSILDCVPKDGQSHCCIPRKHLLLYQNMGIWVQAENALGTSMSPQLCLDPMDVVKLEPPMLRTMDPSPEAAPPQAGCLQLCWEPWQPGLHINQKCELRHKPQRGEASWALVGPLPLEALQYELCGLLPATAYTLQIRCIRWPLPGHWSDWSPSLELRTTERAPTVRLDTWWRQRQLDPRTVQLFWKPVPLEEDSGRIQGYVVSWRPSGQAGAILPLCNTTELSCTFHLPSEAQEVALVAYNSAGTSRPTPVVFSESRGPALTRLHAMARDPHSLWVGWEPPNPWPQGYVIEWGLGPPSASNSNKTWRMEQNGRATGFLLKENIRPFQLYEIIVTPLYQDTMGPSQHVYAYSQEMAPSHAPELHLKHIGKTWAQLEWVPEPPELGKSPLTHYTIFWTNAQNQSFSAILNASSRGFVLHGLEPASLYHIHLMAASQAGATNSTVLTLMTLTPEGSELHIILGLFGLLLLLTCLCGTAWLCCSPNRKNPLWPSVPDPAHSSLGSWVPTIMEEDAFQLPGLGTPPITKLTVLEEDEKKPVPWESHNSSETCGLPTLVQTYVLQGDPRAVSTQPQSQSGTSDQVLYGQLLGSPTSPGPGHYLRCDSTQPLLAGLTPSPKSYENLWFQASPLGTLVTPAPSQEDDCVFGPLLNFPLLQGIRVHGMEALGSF

[7] = target: T3, G-CSFR on NFS-60 cells (UniProt P40223 26-837, limits assumed); assay: cell-based or functional assay
T3 sequence (looked up): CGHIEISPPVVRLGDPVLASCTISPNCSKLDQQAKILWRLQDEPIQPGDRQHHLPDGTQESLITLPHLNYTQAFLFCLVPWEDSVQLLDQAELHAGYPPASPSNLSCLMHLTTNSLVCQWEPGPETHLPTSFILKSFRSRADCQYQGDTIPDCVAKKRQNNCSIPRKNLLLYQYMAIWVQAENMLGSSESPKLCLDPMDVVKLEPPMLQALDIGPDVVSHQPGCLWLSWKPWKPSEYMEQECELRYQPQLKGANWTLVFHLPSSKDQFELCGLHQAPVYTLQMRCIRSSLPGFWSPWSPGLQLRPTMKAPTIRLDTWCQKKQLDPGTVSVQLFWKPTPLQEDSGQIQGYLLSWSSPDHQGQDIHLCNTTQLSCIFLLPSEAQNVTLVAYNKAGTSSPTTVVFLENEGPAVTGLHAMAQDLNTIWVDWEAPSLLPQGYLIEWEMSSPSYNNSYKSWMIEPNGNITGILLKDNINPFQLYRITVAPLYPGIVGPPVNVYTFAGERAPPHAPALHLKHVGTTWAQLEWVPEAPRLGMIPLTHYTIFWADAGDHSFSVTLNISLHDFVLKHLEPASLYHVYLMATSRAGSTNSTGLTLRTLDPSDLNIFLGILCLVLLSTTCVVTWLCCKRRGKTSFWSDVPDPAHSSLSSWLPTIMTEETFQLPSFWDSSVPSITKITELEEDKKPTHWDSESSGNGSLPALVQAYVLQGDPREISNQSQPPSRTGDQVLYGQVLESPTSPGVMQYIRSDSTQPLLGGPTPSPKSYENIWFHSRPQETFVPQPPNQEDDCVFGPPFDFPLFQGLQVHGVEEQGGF

[8] = target: T1, Recombinant human G-CSFR (Glu25-Pro621, …); assay: SPR, twofold dilution series from 20 nM bop3 against chip-immobilized G-CSFR (Fig. 14B); reference not named
[9] = target: T1, Recombinant human G-CSFR (Glu25-Pro621, …); assay: SPR, rhG-CSFR on CM5 chip (Fig. 3E)

- fold tighter binding than Boskar4 [1]: 12 fold
- Kd [2]: 4.3 nM
- koff [2]: 0.0051 s⁻¹
- kon [2]: 1.2e+06 M⁻¹ s⁻¹
- Kd [3]: 14 nM
- koff [3]: 0.0033 s⁻¹
- kon [3]: 240000 M⁻¹ s⁻¹
B1: bv6 (designed binder)
chain: MAALAAALAEIYKGLAEYQARLKSLEGISPELGPALDALRYDMADFAILMAQAMEEGLDSLPQSFLRKALEMIRKIQADAAALREKLAATYKGNDRAAAAVEIAAQLEAFLEKAYQILRHLAAA
notes: Expressed from pET28a downstream of an N-terminal His-tag and thrombin cleavage site; Minorly dimeric in solution; also called starting template

- Kd [2]: 2.7 nM
- koff [2]: 0.0022 s⁻¹
- kon [2]: 880000 M⁻¹ s⁻¹
- Kd [4]: 3.2 nM
- koff [4]: 0.0063 s⁻¹
- kon [4]: 2e+06 M⁻¹ s⁻¹
B2: bop1 (designed binder)
chain: MAALDAALYEIYDGLILYQQRLKSLEGISPELGPALDALRYDMADFAILMAQAMEEGLDSLPQSFLRKALEMIRKIQADAAALREKLAATYKGNDRAAAAQSIARKLEEMLEKAYQILRHLAAA
notes: De novo four-helix bundle, strictly monomeric in solution; Expressed from pET28a downstream of an N-terminal His-tag and thrombin cleavage site; also called bivalent-orientation parallel design 1

- Kd [5]: 1.1 nM
- koff [5]: 0.00092 s⁻¹
- kon [5]: 880000 M⁻¹ s⁻¹
- Kd [4]: 1.3 nM
- koff [4]: 0.0018 s⁻¹
- kon [4]: 1.4e+06 M⁻¹ s⁻¹
B3: bv22 (designed binder)
chain: B1 chain with I48Y, S64R, R67W
notes: Expressed from pET28a with N-terminal His-tag and thrombin cleavage site; also called Boskar4 variant bv22; second-generation variant

- Kd [5]: 1.8 nM
- koff [5]: 0.0015 s⁻¹
- kon [5]: 860000 M⁻¹ s⁻¹
B4: bv23 (designed binder)
chain: B1 chain with I48Y, R67W, K75W
notes: Expressed from pET28a with N-terminal His-tag and thrombin cleavage site; also called Boskar4 variant bv23

- Kd [5]: 1.7 nM
- koff [5]: 0.0017 s⁻¹
- kon [5]: 1e+06 M⁻¹ s⁻¹
B5: bv24 (designed binder)
chain: B1 chain with Y41W, I48C, S64R, R67W
notes: Expressed from pET28a with N-terminal His-tag and thrombin cleavage site; also called Boskar4 variant bv24

- Kd [2]: 3.7 nM
- koff [2]: 0.0024 s⁻¹
- kon [2]: 690000 M⁻¹ s⁻¹
B6: boa1 (designed binder)
chain: MAALAAALQSIYRKLAEMQAKLKSLEGISPELGPALDALRYDMADFAILMAQAMEEGLDSLPQSFLRKALEMIRKIQADAAALREKLAATYKGNDRADAAVYIAADLEILLEQAYQILRHLAAA
notes: Strictly monomeric in solution; Expressed from pET28a downstream of an N-terminal His-tag and thrombin cleavage site; also called bivalent-orientation antiparallel design 1

- Kd [5]: 1.4 nM
- koff [5]: 0.0011 s⁻¹
- kon [5]: 820000 M⁻¹ s⁻¹
B7: bv21 (designed binder)
chain: B1 chain with Y41W, I48Y, S64R, R67W
notes: Expressed from pET28a with N-terminal His-tag and thrombin cleavage site; also called Boskar4 variant bv21

- IC50, Kasumi-1 competitive inhibition assay, 400 pg/mL rhG-CSF [6]: 1.97 nM
- fold improvement in inhibitory potency compared to bop1, NFS-60 competitive inhibition assay [7]: 3 fold
- fold improvement in the receptor-binding affinity [8]: 10 fold
- Kd [4]: 1.2 nM
- koff [4]: 0.0018 s⁻¹
- kon [4]: 1.5e+06 M⁻¹ s⁻¹
B8: bop3 (designed binder)
chain: B2 chain with I48Y, S64R, R67W
notes: exclusively monomeric by SEC; Expressed from pET28a downstream of an N-terminal His-tag and thrombin cleavage site

- Kd [2]: 0.85 nM
- koff [2]: 0.0013 s⁻¹
- kon [2]: 1.9e+06 M⁻¹ s⁻¹
- fold tighter binding than bv6 [9]: 4 fold
B9: bop2 (designed binder)
chain: B2 chain with E10D, R21Q, K23E, E112R, I117D
notes: Strictly monomeric in solution; Expressed from pET28a downstream of an N-terminal His-tag and thrombin cleavage site; also called bivalent-orientation parallel design 2

- Kd [2]: 1.1 nM
- koff [2]: 0.0013 s⁻¹
- kon [2]: 1.4e+06 M⁻¹ s⁻¹
- fold tighter binding than bv6 [9]: 4 fold
B10: boa2 (designed binder)
chain: B6 chain with A20R, I103D, Q116E
notes: Strictly monomeric in solution; Expressed from pET28a downstream of an N-terminal His-tag and thrombin cleavage site; also called bivalent-orientation antiparallel design 2

Reference: patent EP4670784A1 (Eberhard Karls Universität Tübingen (Medizinische Fakultät), dated 2025)
